Earlier results in article PMC2696053.

What was measured:
[1] = biological target: Delta-like 1 (Homo sapiens) (UniProt O00548); test: surface plasmon resonance
[2] = biological target: Delta ECD (Drosophila melanogaster) (UniProt P10041); test: ELISA
Chain of UniProt P10041 (P10041 19-596, stated change not applied): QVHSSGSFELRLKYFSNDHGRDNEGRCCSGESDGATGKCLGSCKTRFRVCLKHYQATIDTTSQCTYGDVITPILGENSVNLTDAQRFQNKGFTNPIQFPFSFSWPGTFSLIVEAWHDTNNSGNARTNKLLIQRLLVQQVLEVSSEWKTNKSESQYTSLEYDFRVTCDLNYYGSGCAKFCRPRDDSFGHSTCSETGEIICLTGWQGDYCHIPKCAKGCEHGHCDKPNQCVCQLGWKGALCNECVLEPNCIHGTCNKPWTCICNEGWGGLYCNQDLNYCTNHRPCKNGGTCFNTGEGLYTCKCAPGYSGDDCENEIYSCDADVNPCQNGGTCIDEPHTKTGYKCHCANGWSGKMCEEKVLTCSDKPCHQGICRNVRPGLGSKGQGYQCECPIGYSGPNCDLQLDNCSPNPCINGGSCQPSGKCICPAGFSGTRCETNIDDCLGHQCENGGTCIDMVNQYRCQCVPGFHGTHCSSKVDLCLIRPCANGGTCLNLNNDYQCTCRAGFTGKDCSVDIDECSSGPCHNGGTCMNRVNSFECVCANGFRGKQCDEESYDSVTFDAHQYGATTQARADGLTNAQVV

Chain of UniProt O00548 (O00548 18-545, stated change not applied): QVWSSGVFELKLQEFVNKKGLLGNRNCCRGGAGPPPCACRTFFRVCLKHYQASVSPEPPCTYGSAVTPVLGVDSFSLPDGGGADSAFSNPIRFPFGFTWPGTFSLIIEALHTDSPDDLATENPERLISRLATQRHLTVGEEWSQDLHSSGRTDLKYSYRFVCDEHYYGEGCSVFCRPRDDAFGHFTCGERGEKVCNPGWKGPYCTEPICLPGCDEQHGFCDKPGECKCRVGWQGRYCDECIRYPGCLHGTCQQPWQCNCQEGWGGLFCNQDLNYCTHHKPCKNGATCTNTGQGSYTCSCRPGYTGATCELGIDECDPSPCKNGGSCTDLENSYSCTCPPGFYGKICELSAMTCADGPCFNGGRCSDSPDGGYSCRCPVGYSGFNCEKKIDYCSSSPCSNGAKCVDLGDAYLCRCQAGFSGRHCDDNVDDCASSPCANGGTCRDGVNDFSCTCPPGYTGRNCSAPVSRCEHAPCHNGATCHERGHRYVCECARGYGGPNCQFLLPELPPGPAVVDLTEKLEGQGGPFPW

Kd [1] [µM] | Kd [2] [µM] | Substance
130 |  | Notch1 EGF-like repeats 11-14 (from UniProt P46531)
 | 0.00187 | Notch EGF-like repeats 11-20 (from UniProt P07207)
